Experimental findings from patent US20030068675, “Position dependent recognition of GNN nucleotide triplets by zinc fingers” (published 2003) are described below.

Assay in all cases: EMSA
Conditions in all cases: tags: MBP fusion
For orientation: In EMSA bound probe runs differently from free probe, usually more slowly.

In one data set the target is ZFP SBS#630 (synthetic). An outline of the steps: (§1)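 Purified ZFP was titrated against labeled double-stranded target (1 nM or lower, at least 10-fold below expected Kd) carrying the natural binding site with flanks. Binding buffer was 10 mM Tris pH 7.5, 100 mM KCl, 1 mM MgCl2, 0.1 mM ZnCl2, 5 mM DTT, 10% glycerol, 0.02% BSA, with equilibration for at least 45 min. Bound and free target were separated on a 10% polyacrylamide gel.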

For another data set, the target named is T1, ZFP SBS#617 (synthetic).
T1 chain: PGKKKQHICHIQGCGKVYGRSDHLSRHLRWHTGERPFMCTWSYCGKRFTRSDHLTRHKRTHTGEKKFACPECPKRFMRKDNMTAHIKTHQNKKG
In outline: as §1

The target in another data set is T2, ZFP SBS#619 (synthetic).
T2 chain: T1 chain with A84N
An outline of the steps:
as §1

The target in a further data set is T3, ZFP SBS#621 (synthetic).
T3 chain: T1 chain with K79L, M82R, A84Q
An outline of the steps:
as §1

In a further data set the target is ZFP SBS#620 (synthetic). In outline: as §1
Chain of ZFP SBS#620 (synthetic) (chain, as listed by the source): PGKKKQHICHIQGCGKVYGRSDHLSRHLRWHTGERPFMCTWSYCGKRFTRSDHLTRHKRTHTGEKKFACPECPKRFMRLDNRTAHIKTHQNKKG
The next data set has as its target T4, ZFP SBS#618 (synthetic).
T4 chain: T1 chain with A84Q
In outline: as §1

In another data set the target is T5, ZFP SBS#370 (synthetic).
T5 chain: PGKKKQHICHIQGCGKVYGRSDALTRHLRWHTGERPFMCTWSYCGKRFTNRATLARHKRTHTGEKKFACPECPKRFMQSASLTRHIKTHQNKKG
In outline:
as §1

Another data set addresses T6, ZFP SBS#403 (synthetic).
T6 chain: T5 chain with A23S, T25L, A80G
In outline: as §1

The next data set addresses T7, ZFP SBS#373 (synthetic).
T7 chain: T5 chain with A23S, T25L
An outline of the steps:
as §1

The next data set concerns the target T8, ZFP SBS#569 (synthetic).
T8 chain: T5 chain with A23S, T25L, N50T, R51G, A52G, T53S, S79R, A80S, S81A
In outline:
as §1

The target in the next data set is T9, ZFP SBS#401 (synthetic).
T9 chain: T5 chain with N50T, R51G, A52G, T53S
An outline of the steps: as §1

For the next data set, the target named is T10, ZFP SBS#369 (synthetic).
T10 chain: T5 chain with N50T, R51G, A52G, T53S, A80G
An outline of the steps: as §1

The target of a further data set is T11, ZFP SBS#371 (synthetic).
T11 chain: T5 chain with A80G
In outline:
as §1

The target of the next data set is T12, ZFP SBS#372 (synthetic).
T12 chain: T5 chain with A23S, T25L, N50T, R51G, A52G, T53S
In outline:
as §1

A further data set deals with T13, ZFP SBS#422 (synthetic).
T13 chain: T5 chain with A23S, T25L, N50T, R51G, A52G, T53S, A55T, A80G
An outline of the steps: as §1

The target of the next data set is T14, ZFP SBS#421 (synthetic).
T14 chain: T5 chain with R20D, A23S, T25L, N50T, R51G, A52G, T53S, A80G
An outline of the steps: as §1

For a further data set, the target named is ZFP SBS#614 (synthetic). An outline of the steps:
as §1

The target in a further data set is T15, ZFP SBS#608 (synthetic).
T15 chain: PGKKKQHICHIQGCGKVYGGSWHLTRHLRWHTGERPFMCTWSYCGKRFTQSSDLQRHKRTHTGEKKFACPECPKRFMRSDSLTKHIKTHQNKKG
In outline:
as §1

Another data set addresses ZFP SBS#613 (synthetic). An outline of the steps: as §1
Another data set concerns the target T16, ZFP SBS#629 (synthetic).
T16 chain: T1 chain with D22S, S25T, H53N, R56T, K79G, N81A, M82L, A84S
In outline: as §1

The next data set addresses T17, ZFP SBS#628 (synthetic).
T17 chain: T1 chain with S25T, H53N, R56T, K79G, N81A, M82L, A84S
An outline of the steps:
as §1

The target in the next data set is T18, ZFP SBS#653 (synthetic, UniProt P08047).
T18 chain: T15 chain with G20T, S21T, W22S, H23D, Q50R, S52D, D53N, Q55A, S81N, K84T
In outline:
as §1

The target in a further data set is ZFP SBS#652 (synthetic). In outline: as §1
Chain of ZFP SBS#652 (synthetic) (chain, as listed by the source): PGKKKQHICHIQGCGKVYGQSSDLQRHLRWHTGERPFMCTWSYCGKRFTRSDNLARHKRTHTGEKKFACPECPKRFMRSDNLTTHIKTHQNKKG
The next data set deals with ZFP SBS#616 (synthetic). In outline: as §1
A further data set addresses ZFP SBS#651 (synthetic). In outline: as §1
The next data set deals with ZFP SBS#656 (synthetic). An outline of the steps: as §1
Chain of ZFP SBS#656 (synthetic) (chain, as listed by the source): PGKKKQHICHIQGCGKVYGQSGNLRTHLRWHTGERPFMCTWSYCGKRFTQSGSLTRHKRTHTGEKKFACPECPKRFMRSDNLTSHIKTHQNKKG
A further data set deals with ZFP SBS#654 (synthetic). In outline:
as §1

A further data set concerns the target T19, ZFP SBS#657 (synthetic).
T19 chain: T15 chain with G20Q, W22G, H23N, T25R, R26T, D53T, Q55R, S81N, K84S
An outline of the steps: as §1

In a further data set the target is T20, ZFP SBS#646 (synthetic).
T20 chain: T1 chain with R20Q, D22G, H23N, S25A, H53A, T55A, K79G, N81A, M82L, A84S
An outline of the steps:
as §1

Another data set has as its target T21, ZFP SBS#647 (synthetic).
T21 chain: T1 chain with R20Q, D22A, H23N, S25A, H53A, T55A, K79G, N81A, M82L, A84S
In outline: as §1

A further data set deals with ZFP SBS#611 (synthetic). In outline: as §1
In a further data set the target is T22, ZFP SBS#612 (synthetic).
T22 chain: T15 chain with G20Q, W22G, H23T, S81A, T83A, K84R
In outline:
as §1

Another data set has as its target T23, ZFP SBS#624 (synthetic).
T23 chain: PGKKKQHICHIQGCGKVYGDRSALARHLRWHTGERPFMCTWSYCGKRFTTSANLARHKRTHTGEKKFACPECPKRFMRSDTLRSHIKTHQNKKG
An outline of the steps:
as §1

Another data set has as its target ZFP SBS#661 (synthetic). In outline: as §1
Another data set has as its target T24, ZFP SBS#660 (synthetic).
T24 chain: T23 chain with D20N, S22A, A23T, T50Q, A52G, N53H, A55T, T81N, R83A, S84R
In outline:
as §1

Numbering of substitutions follows the chain as printed.

Chain of ZFP SBS#651 (synthetic) (chain, as listed by the source): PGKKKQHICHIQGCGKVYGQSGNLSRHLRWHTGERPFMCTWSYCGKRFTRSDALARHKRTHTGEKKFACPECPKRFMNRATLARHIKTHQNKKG
Chain of ZFP SBS#613 (synthetic) (chain, as listed by the source): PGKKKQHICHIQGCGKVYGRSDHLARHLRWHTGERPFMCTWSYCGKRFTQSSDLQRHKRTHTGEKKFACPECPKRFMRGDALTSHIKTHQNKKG
Chain of ZFP SBS#614 (synthetic) (chain, as listed by the source): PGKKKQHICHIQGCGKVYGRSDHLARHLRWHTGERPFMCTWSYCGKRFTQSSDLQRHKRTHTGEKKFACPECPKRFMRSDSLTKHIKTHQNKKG
Chain of ZFP SBS#661 (synthetic) (chain, as listed by the source): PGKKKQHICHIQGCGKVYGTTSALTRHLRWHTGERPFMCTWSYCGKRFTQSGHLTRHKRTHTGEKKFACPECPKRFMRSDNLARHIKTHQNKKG

B1: CGGGGAGAGT (dsDNA)
DNA 1: CGGGGAGAGT
DNA 2: ACTCTCCCCG
As to B1, the Kd with ZFP SBS#630 was 37.5 nM.

B2: AAGGGGGGG (dsDNA)
DNA 1: AAGGGGGGG
DNA 2: CCCCCCCTT
As to B2, the Kd with ZFP SBS#617 is 1 nM; with ZFP SBS#619 it was 1.34 nM; with ZFP SBS#621 it was 0.75 nM; with ZFP SBS#620 it was 0.54 nM; in the data set with ZFP SBS#618, 0.55 nM.

B3: GTAGTTGTG (dsDNA)
DNA 1: GTAGTTGTG
DNA 2: CACAACTAC
In the case of B3, the Kd with ZFP SBS#370 was found to be 300 nM; with ZFP SBS#403, 750 nM; with ZFP SBS#373, 320 nM; in the data set with ZFP SBS#569, 52 nM; with ZFP SBS#401, 80 nM; in the data set with ZFP SBS#369, 95 nM. The Kd with ZFP SBS#371 stood at 175 nM; with ZFP SBS#372 it was 112 nM; with ZFP SBS#422, 200 nM; with ZFP SBS#421, 500 nM.

B4: TTGGCTGGGC (dsDNA)
DNA 1: TTGGCTGGGC
DNA 2: GCCCAGCCAA
As to B4, the figures for the Kd in the data set with ZFP SBS#614, in the data set with ZFP SBS#608 and with ZFP SBS#613 were 2 nM, 8 nM and 1.45 nM, respectively.

B5: TTGTAGGGGA (dsDNA)
DNA 1: TTGTAGGGGA
DNA 2: TCCCCTACAA
B5: the Kd was determined as 150 nM with ZFP SBS#629 and 130 nM in the data set with ZFP SBS#628.

B6: TAGGAGGCTG (dsDNA)
DNA 1: TAGGAGGCTG
DNA 2: CAGCCTCCTA
In the case of B6, the Kd with ZFP SBS#653 was 5.5 nM; with ZFP SBS#652, 1.5 nM.

B7: GAGGAGGATG (dsDNA)
DNA 1: GAGGAGGATG
DNA 2: CATCCTCCTC
B7 gave a Kd in the data set with ZFP SBS#616 of 0.08 nM.

B8: GTTGTGGAAT (dsDNA)
DNA 1: GTTGTGGAAT
DNA 2: ATTCCACAAC
Take B8: binding with ZFP SBS#651 was characterised by a dissociation constant (Kd) of 67.5 nM.

B9: TAGGCATAAA (dsDNA)
DNA 1: TAGGCATAAA
DNA 2: TTTATGCCTA
In the case of B9, the Kd came to 540 nM with ZFP SBS#656, 105 nM with ZFP SBS#654 and 300 nM in the data set with ZFP SBS#657.

B10: TTGGTGGAAG (dsDNA)
DNA 1: TTGGTGGAAG
DNA 2: CTTCCACCAA
Consider B10, for which the figures for the equilibrium dissociation constant (Kd) with ZFP SBS#646 and with ZFP SBS#647 were 35 nM and 40 nM, respectively.

B11: GTGGCTGCAG (dsDNA)
DNA 1: GTGGCTGCAG
DNA 2: CTGCAGCCAC
Regarding B11, the results for the Kd in the data set with ZFP SBS#611 and with ZFP SBS#612 were 11.5 nM and 0.38 nM, respectively.

B12: ACGGATGTCT (dsDNA)
DNA 1: ACGGATGTCT
DNA 2: AGACATCCGT
B12 came in with a Kd with ZFP SBS#624 of 7 nM.

B13: GAGGGAGTTC (dsDNA)
DNA 1: GAGGGAGTTC
DNA 2: GAACTCCCTC
As to B13, the values for the Kd with ZFP SBS#661 and in the data set with ZFP SBS#660 were 1.73 nM and 8.25 nM, respectively.

Broadly, the Kd is the constant that tells how readily two partners part at equilibrium.
